Experimental data taken from the supplement of paper PMC12042874.
± gives the uncertainty stated by the source.

experiment: amyloid nucleation score (Sup35N fusion, yeast selection) (log enrichment); library NNK1; higher = more nucleation; inactive = no reads after selection
Summary of the method: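 The nucleation score, computed with DiMSum, is the log enrichment of output over input reads, centred on the mode score of non-aggregating sequences. Sequences with under 100 input reads were dropped. Reads were generated by Illumina sequencing of plasmid inserts from psi-negative yeast with Sup35N fused to peptides of 20 random codons, induced with 100 μM copper sulfate for 24 hours and grown 7 days at 30°C on medium lacking adenine and uracil.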

TRRVWLQCLMLSYMAVYISM and TRVKQMEVVSWTRHHWPRCF are within error of each other in amyloid nucleation score: 0.044 ± 1.1 for the first, -0.623 ± 0.47 for the second.

TRYGVYQYVVDSLINCHLLE and TSCEGEDFGRKLSREMVLWC are within error of each other in amyloid nucleation score: -0.186 ± 0.52 for the first, 0.234 ± 0.68 for the second.

TSCSLYIVMRCVWCIYRGAR and TSCSVSLVWLFLGVRLCVLC are within error of each other in amyloid nucleation score: -0.866 ± 2.4 for the first, -0.009 ± 0.24 for the second.

First: TSDGVMMVR
Second: TSFFFHEQHHFKGNKFNFEV
The amyloid nucleation score of the first is lower: 0.564 ± 0.34 for the first, 3.5 ± 0.18 for the second.

TSFYTGFWCPA and TSIFCGSLLGAKVDSTPVPV are within error of each other in amyloid nucleation score: -0.232 ± 0.57 for the first, -1.27 ± 2.4 for the second.

TSLVVYYTSWV and TSQTMTCWGSAL are within error of each other in amyloid nucleation score: -1.55 ± 2.4 for the first, 0.93 ± 0.4 for the second.

TSRNW and TSSEFDLLNGQFANGYVLVH are within error of each other in amyloid nucleation score: -0.626 ± 1.1 for the first, 0.546 ± 0.5 for the second.

Going from TSSVYLWVSQCYGMNSLLNL to TSSYGCQHINVMCCRLQGDL, the amyloid nucleation score rises from -0.118 ± 0.75 to 7.444 ± 0.074.

TSTRRHYRVFARAQQEQNSP and TSTVVFFKFYLTKFWISVPT are within error of each other in amyloid nucleation score: 0.869 ± 0.49 for the first, 1.28 ± 0.36 for the second.

TSVDG and TSVDVFS are within error of each other in amyloid nucleation score: 0.162 ± 0.28 for the first, 0.656 ± 0.62 for the second.

TSWFAFANWVLPSFHYTPVP and TSWFSYRLANCAFHSQGFSR are within error of each other in amyloid nucleation score: 0.43 ± 0.43 for the first, 0.366 ± 0.38 for the second.

TSWGNVDGCYNGRTLVLLDF and TSYPSYVDFW are within error of each other in amyloid nucleation score: -0.316 ± 0.67 for the first, 0.209 ± 0.58 for the second.

TTCVELYVWRGWRGAGGTGV and TTEYRMLGYSVEHLQDCSDR are within error of each other in amyloid nucleation score: -1.41 ± 2.4 for the first, -0.527 ± 0.54 for the second.

First: TTFSEVERLWGWSVFCNLST
Second: TTINIRYPIYSVVMCWYRLE
The amyloid nucleation score of the first is lower: 0.723 ± 0.66 for the first, 5.513 ± 0.045 for the second.

TTIRYNVLRAPMLCIIILMN and TTSVV are within error of each other in amyloid nucleation score: -0.607 ± 0.58 for the first, -0.174 ± 1.2 for the second.

TTVKYLWLYLGFVLGQGVNG and TVAFSVTTVDR are within error of each other in amyloid nucleation score: -0.303 ± 0.25 for the first, -0.875 ± 2.4 for the second.

TVAGLT and TVCRSLSRLERHLR are within error of each other in amyloid nucleation score: -0.224 ± 0.71 for the first, 0.068 ± 0.63 for the second.

Going from TVFFDYDDIYLVNSVFRSAV to TVKCILYSRFHKGCGWRCER, the amyloid nucleation score rises from -0.113 ± 0.44 to 3.15 ± 0.14.

Compared with TVLSSFLLKLRLTIVSCFLR, TVLTTTHFARSVFTLPGKSP is higher in amyloid nucleation score: -0.082 ± 0.65 for the first, 2.89 ± 0.17 for the second.

TVLVYRGFTEGCSHFSWPSN and TVQWAEN are within error of each other in amyloid nucleation score: 0.302 ± 0.8 for the first, 0.292 ± 0.63 for the second.

Compared with TVRLKLINRYPDENRLYTDH, TVTWASGFMGGVDHCSWGQV is lower in amyloid nucleation score: 1.3 ± 0.21 for the first, 0.043 ± 0.65 for the second.

First: TVVNSVGYYAPKLPSACLGN
Second: TWGRVFSLMAPFISRPCFWG
The amyloid nucleation score of the first is higher: 0.638 ± 0.31 for the first, -0.385 ± 0.34 for the second.

First: TWMLVEVVNCCLYTHVFYR
Second: TWRNNLKWHMYTYLLPAHIG
The amyloid nucleation score of the first is higher: 4.27 ± 0.061 for the first, -0.42 ± 0.46 for the second.

TWSACICKRMVLPCDFQNGS and TWVMFDVWGRVDYER are within error of each other in amyloid nucleation score: 0.808 ± 0.9 for the first, 0.169 ± 0.4 for the second.

TYANGGALALAIVAVKC and TYEPLTLMNGVLSVRSGPGI are within error of each other in amyloid nucleation score: -0.398 ± 0.64 for the first, -0.508 ± 1 for the second.

Going from TYFWGSLIPEWWLFELYPLE to TYPYYVTVGGIS, the amyloid nucleation score falls from 1.66 ± 0.32 to 0.113 ± 0.43.

TYWMHCEWFSV and VAACLKNMIESVQSVKYIWR are within error of each other in amyloid nucleation score: -1.4 ± 2.7 for the first, 0.837 ± 0.93 for the second.

First: VAATDWVGNHKS
Second: VAATGNYIIIDNVRLVHAFG
The amyloid nucleation score of the first is higher: 1.28 ± 0.55 for the first, -0.987 ± 0.67 for the second.

Going from VACNKLRYMCRCQYNMTVWF to VADFSL, the amyloid nucleation score rises from -0.262 ± 0.62 to 1.44 ± 0.53.

Compared with VADGYIHARSCRYFKNIIVR, VAFMDLTMRLDWGNFSNR is higher in amyloid nucleation score: -1 ± 1.2 for the first, 4.34 ± 0.056 for the second.

Compared with VAISQCLNNSNSRNIIVVKW, VARHGEGFNW is lower in amyloid nucleation score: 1.69 ± 0.34 for the first, 0.446 ± 0.64 for the second.

Going from VARHISAVSAWGACYRWCFR to VAVQRPIFIVMWPQNLCISA, the amyloid nucleation score rises from 0.706 ± 0.51 to 3.69 ± 0.13.

VAVVLYAQTV and VCCGPSSEEP are within error of each other in amyloid nucleation score: -0.376 ± 0.63 for the first, 0.384 ± 0.85 for the second.

VCFVFMS and VCGFWVWLYVGVYSSIPNSM are within error of each other in amyloid nucleation score: -0.211 ± 0.41 for the first, -0.015 ± 0.31 for the second.

VCISWLRDTGADC and VCKGSHWFIYLRNGFKSPSV are within error of each other in amyloid nucleation score: 2.12 ± 0.23 for the first, 1.46 ± 0.65 for the second.

Compared with VCKGVYNMPCSTPNLYDSAG, VCLPSGLFINLGVWYAAQHH is higher in amyloid nucleation score: -0.563 ± 0.79 for the first, 6.51 ± 0.069 for the second.

First: VCLQW
Second: VCLSC
The amyloid nucleation score of the first is lower: 0.386 ± 0.64 for the first, 2.03 ± 0.41 for the second.

VCRGGSSFLLNTKLVNT and VCSKGACSLGDVNCDSTDVG are within error of each other in amyloid nucleation score: 0.675 ± 0.33 for the first, 0.104 ± 0.63 for the second.

VCSSLFSSCPL and VDHISCCVFVMAVHMELALR are within error of each other in amyloid nucleation score: 0.735 ± 0.37 for the first, -1.07 ± 1.8 for the second.

VDLDSVR and VDNMLPFMGDYWDLFYGFLL are within error of each other in amyloid nucleation score: -0.236 ± 0.48 for the first, -0.217 ± 0.31 for the second.

Compared with VDRLNFLSLSYENFSGSSGE, VDRQFTDEFKVFTEGTKVDE is lower in amyloid nucleation score: 4.7 ± 0.064 for the first, -0.5 ± 1.4 for the second.

Going from VDVAVVDTNLSLNMACKGWT to VDVRNWCIWDWKGLSAGVGG, the amyloid nucleation score falls from 1.21 ± 0.45 to -0.643 ± 0.41.

VEDAIDACKFNCDSIDMTTD and VERLAT are within error of each other in amyloid nucleation score: -0.206 ± 0.75 for the first, -0.259 ± 0.73 for the second.

VESFYVSIFGGGLRLKCSKS and VETSGVILVESWCFMLGIDV are within error of each other in amyloid nucleation score: 0.514 ± 0.46 for the first, 0.724 ± 0.75 for the second.

VFADVISIKMNCTLLTSILL and VFESIVNGQVMMTLN are within error of each other in amyloid nucleation score: 0.823 ± 0.37 for the first, -1.92 ± 2.4 for the second.

VFESWKFELRVWIVVTFLHG and VFGVKVRDCASANGVFGWSS are within error of each other in amyloid nucleation score: 0.21 ± 0.52 for the first, -0.14 ± 1.4 for the second.

VFGVVSFLHDFNFGKAYFAV and VFIQMGHELDFQCEE are within error of each other in amyloid nucleation score: 0.191 ± 0.4 for the first, 0.527 ± 0.63 for the second.

Compared with VFLIAWGLFSRMC, VFLISY is lower in amyloid nucleation score: 4.54 ± 0.11 for the first, 0.199 ± 0.42 for the second.

Going from VFLSADDVSGPRVDAVSGYS to VFNCWCLTEFFVMYGIVCQK, the amyloid nucleation score rises from 0.713 ± 0.5 to 4.52 ± 0.1.

VFNFT and VFPALLNISRLISKTQCSQV are within error of each other in amyloid nucleation score: -0.816 ± 1.9 for the first, -0.978 ± 0.99 for the second.

First: VFRPGRSSDCNLSMLVQRVW
Second: VFSKHRFSIYCSRYAEPTTR
The amyloid nucleation score of the first is higher: 4.18 ± 0.088 for the first, 0.002 ± 0.31 for the second.

VFTLPLDWQKRCGYDSLRFP and VFTSAD are within error of each other in amyloid nucleation score: 0.018 ± 0.44 for the first, 0.093 ± 0.39 for the second.

VGCKP and VGCLMWYALCGLE are within error of each other in amyloid nucleation score: -0.24 ± 0.75 for the first, 0.347 ± 0.5 for the second.

VGCSRIDDPRSGAEALRSYC and VGELYFIVWMDLLLVGWDGR are within error of each other in amyloid nucleation score: 1.08 ± 0.78 for the first, 0.897 ± 0.53 for the second.

Compared with VGHPKVFWDGVGSRTILERS, VGLDLALSYHFAQG is higher in amyloid nucleation score: 0.48 ± 0.74 for the first, 4.8 ± 0.087 for the second.

Going from VGLFVFSMSLGLAD to VGLINHYSSSNMLG, the amyloid nucleation score rises from -1.55 ± 0.51 to 0.161 ± 0.62.

Compared with VGLLEAFMLRGDSRRCD, VGLLMKTACSWAGSVTDRCM is higher in amyloid nucleation score: -1.25 ± 2.1 for the first, 2.62 ± 0.14 for the second.

Compared with VGLLSISLMYQRTASTGYFS, VGMYGSVSFMS is lower in amyloid nucleation score: 0.615 ± 0.28 for the first, -1.02 ± 0.89 for the second.

First: VGQLSTFCLGILIVLSVN
Second: VGRLGVEG
The amyloid nucleation score of the first is higher: 0.338 ± 0.18 for the first, -0.305 ± 0.25 for the second.

VGSLGM and VGTDLNETVG are within error of each other in amyloid nucleation score: -0.221 ± 0.37 for the first, -0.646 ± 1.5 for the second.

VGVRRDTCSPRQVLGHTS gave an amyloid nucleation score of 0.301 ± 0.52.

For TSPCYWNCI, the amyloid nucleation score was “inactive”.
With TSRALRREIARLKAYGSMMV the amyloid nucleation score was “inactive”.
For TSSWQVPVNAPEVN, the amyloid nucleation score was “inactive”.
In the case of TWRQNSRGNRASNCYVRSLS, the amyloid nucleation score is reported as “inactive”.
In the case of TWSCMFLYYFTLWLCTS, the amyloid nucleation score is reported as “inactive”.
For TYGDGEAE, the amyloid nucleation score was “inactive”.
With TYLFF the amyloid nucleation score was “inactive”.
In the case of TYSEVRGYLLSRFAEVIDS, the amyloid nucleation score is reported as “inactive”.
